Measured values from patent US20220259316A1 (SINOCELLTECH, published 2022).

Molecular target: T1, EGFR ECD recombinant protein (UniProt P00533 25-645, limits assumed)
T1 construct: extracellular domain; also called erbB1; Her1
Experiment: method not stated; recombinant EGFR ECD protein

B1: recombinant fully human anti-EGFR monoclonal antibody N6-3 (antibody, human IgG1, kappa, V domains shown)
VH: QVQLQESGPGLVKPSETLSLTCTVSGGSVSSGDYYWSWIRQSPGKGLEWIGHIYYSGNTNYNPSLKSRLTISIDTSKNQFSLKLSSVTAADTAIYYCVRDRVTGAFDIWGQGTMVTVSS
VL: DIVMTQSPSTLSASVGDRVTITCQASQDISNYLNWYQQKPGKAPKLLIYDASSLETGVPSRFSGSGSGTDFTFTISGLQPEDIATYFCQHFDHLPLAFGGGTKVEIKR
notes: also called recombinant human anti-EGFR monoclonal antibody (N6-3)
  Kd: 0.05 nM
